Molecular target: the molecule itself
Test: cryo-EM structure

B1: human sodium-proton exchanger 3 (NHE3/SLC9A3) (natural protein, UniProt P48764 26-834, looked up)
chain: GGVEVEPGGAHGESGGFQVVTFEWAHVQDPYVIALWILVASLAKIGFHLSHKVTSVVPESALLIVLGLVLGGIVWAADHIASFTLTPTVFFFYLLPPIVLDAGYFMPNRLFFGNLGTILLYAVVGTVWNAATTGLSLYGVFLSGLMGDLQIGLLDFLLFGSLMAAVDPVAVLAVFEEVHVNEVLFIIVFGESLLNDAVTVVLYNVFESFVALGGDNVTGVDCVKGIVSFFVVSLGGTLVGVVFAFLLSLVTRFTKHVRIIEPGFVFIISYLSYLTSEMLSLSAILAITFCGICCQKYVKANISEQSATTVRYTMKMLASSAETIIFMFLGISAVNPFIWTWNTAFVLLTLVFISVYRAIGVVLQTWLLNRYRMVQLEPIDQVVLSYGGLRGAVAFALVVLLDGDKVKEKNLFVSTTIIVVFFTVIFQGLTIKPLVQWLKVKRSEHREPRLNEKLHGRAFDHILSAIEDISGQIGHNYLRDKWSHFDRKFLSRVLMRRSAQKSRDRILNVFHELNLKDAISYVAEGERRGSLAFIRSPSTDNVVNVDFTPRSSTVEASVSYLLRENVSAVCLDMQSLEQRRRSIRDAEDMVTHHTLQQYLYKPRQEYKHLYSRHELTPTEDEKQDREIFHRTMRKRLESFKSTKLGLNQNKKAAKLYKRERAQKRRNSSIPNGKLPMESPAQNFTIKEKDLELSDTEEPPNYDEEMSGGIEFLASVTKDTASDSPAGIDNPVFSPDEALDRSLLARLPPWLSPGETVVPSQRARTQIPYSPGTFCRLMPFRLSSKSVDSFLQADGPEERPPAALPESTHM
- stoichiometry N: 2

Source: paper PMC9132474 (Science Advances, 2022)
